Patent publication US8076085

Legend:
Assay in all cases: inhibition ELISA: serum preincubated with soluble peptide, then preS1 (94-117) coated plate
[1] = target: IgG anti-preS1 (94-117) in serum of HBeAg+ patient with acute resolving HB-infection (FIG. 6b)
[2] = target: IgG anti-preS1 (94-117) in serum from a HBeAg+ chronic patient (FIG. 7)
[3] = target: IgG anti-preS1 (94-117) in serum of one HBeAg+ patient with chronic HBV-infection who later spontaneously seroconverted to anti-HBe (FIG. 5a)
[4] = target: IgG anti-preS1 (94-117) in serum of HBeAg+ patient with acute resolving HB-infection (FIG. 6a)
[5] = target: IgG anti-preS1 (94-117) in serum of HBeAg+ patient with acute resolving HB-infection (FIG. 5b)

Measured: percent inhibition

B1: preS1#94-117 peptide (HBV subtypes adw, adw2 and two of three adr subtypes) (peptide)
peptide: PASTNRQSGRQPTPISPPLRDSHP
100%: all assays above
